From US20110262944A1 (UNIVERSITY OF TSUKUBA, published 2011) come the findings set out here.

Holding throughout (assay): Ni-NTA co-precipitation after co-expression in E. coli
Assay [1] deals with PB2 residues 252-490 with N-terminal hexa-histidine tag and TEV cleavage site (influenza A/Puerto Rico/8/34 H1N1, UniProt B4URE6 252-490).
For assay [2], the target named is T1, PB2 residues 37-174 with N-terminal hexa-histidine tag and TEV cleavage site (influenza A/Puerto Rico/8/34 H1N1, UniProt A4GCJ6 37-174).
T1 sequence: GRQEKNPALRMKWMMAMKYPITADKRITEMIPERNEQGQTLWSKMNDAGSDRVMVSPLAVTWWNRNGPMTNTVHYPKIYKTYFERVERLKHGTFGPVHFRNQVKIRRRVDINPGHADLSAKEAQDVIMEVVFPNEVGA

For assay [3], the target named is T2, PB2-N (residues 1-86) carrying a hexa-histidine tag at the N-terminal end (influenza A/Puerto Rico/8/34 H1N1, UniProt A4GCJ6 1-86).
T2 sequence: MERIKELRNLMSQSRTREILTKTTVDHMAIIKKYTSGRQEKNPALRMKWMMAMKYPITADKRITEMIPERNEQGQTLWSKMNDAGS

B1: PB1-C (C-terminal residues 678-757 of the RNA polymerase PB1 subunit, influenza A/Puerto Rico/8/34 H1N1) (other)
chain: SQRGVLEDEQMYQRCCNLFEKFFPSSSYRRPVGISSMVEAMVSRARIDARIDFESGRIKKEEFTEIMKICSTIEELRRQK
Consider B1, for which the binding result is listed as “no binding” in assay [1], “no binding” in assay [2] and “binds” in assay [3].
